# Data published in doi:10.1101/152272, “t-Darpp is an elongated monomer that binds to calcium and is phosphorylated by cyclin-dependent kinases 1 and 5” (bioRxiv, 2017).
# Target: the molecule itself
# Assay: cross-linking; glutaraldehyde 0.1% or 1% (v/v), 30 min at 25°C, then SDS-PAGE (10% gel); each protein alone and an equimolar mixture of t-Darpp and Darpp-32
protein,measurement,value
"Darpp-32 (natural protein, UniProt Q9UD71-1 1-204, looked up, Darpp-32, the longer isoform encoded by PPP1R1B, with 36 more residues at the N-terminus than t-Darpp; The printed UniProt entry is the human protein; The construct is probably the whole isoform, because the tail is said to be added to the C-terminus of Darpp-32; also called recombinant Darpp-32; longer isoform of t-Darpp; source: E. coli BL21 DE3, purified (Ni-NTA)) MDPKDRKKIQFSVPAPPSQLDPRQVEMIRRRRPTPAMLFRLSEHSSPEEEASPHQRASGEGHHLKSKRPNPCAYTPPSLKAVQRIAESHLQSISNLNENQASEEEDELGELRELGYPREEDEEEEEDDEEEEEEEDSQAEVLKVIRQSAGQKTTCGQGLEGPWERPPPLDESERDGGSEDQVEDPALSEPGEEPQRPSPSEPGT",stoichiometry N,2
